In patent US20180238866A1 (University of California, published 2018):
Where no end group is shown, it is not given here.

B1: scrambled site 2 peptide of β3 (S2-β3scr), GST fusion (peptide)
chain: HHHHHHVHDSHYSGQGAMSDNTNSPQT
modifications: also: GST fusion protein, GST not in chain
notes: Control peptide; also called scrambled S2-β3 peptide; scrambled β3 peptide; not shown: glutathione S-transferase (GST) from vector pGEX-2T
B2: secreted phospholipase A2 type IIA (sPLA2-IIA), wild type, recombinant (enzyme)
chain: NLVNFHRMIKLTTGKEAALSYGFYGCHCGVGGRGSPKDATDRCCVTHDCCYKRLEKRGCGTKFLSYKFSNSGSRITCAKQDSCRSQLCECDKAAATCFARNKTTYNKKYQYYSNKHCRGSTPRC
modifications: FITC-labeled in the flow cytometry binding assays of FIG. 7a-b ; FITC-labelled in the flow cytometry binding assays (FIG. 7a-b).
notes: PDB 1DCY was used for it in the docking simulation; also called WT sPLA2-IIA; sPLA-IIA
B3: disintegrin domain of human ADAM15, GST fusion protein (ligand)
chain: not shown
modifications: FITC-labeled in the flow cytometry assays
notes: domain: disintegrin domain; also called ADAM15 disintegrin domain; not shown: glutathione S-transferase (GST) fusion partner
B4: rat fibronectin type III domains 8-11 (FN8-11), GST fusion protein (ligand)
chain: not shown
modifications: FITC-labeled in the flow cytometry assays
notes: domain: Fibronectin type III domains 8-11; also called RGD-containing fibronectin fragment; not shown: glutathione S-transferase (GST) fusion partner
B5: Fibrinogen γ-chain C-terminal domain that lacks residues 400-411 (γC399tr) (ligand, UniProt P02679 177-425, looked up)
chain: KDCQDIANKGAKQSGLYFIKPLKANQQFLVYCEIDGSGNGWTVFQKRLDGSVDFKKNWIQYKEGFGHLSPTGTTEFWLGNEKIHLISTQSAIPYALRVELEDWNGRTSTADYAMFKVGPEADKYRLTYAYFAGGDAGDAFDGFDFGDDPSDKFFTSHNGMQFSTWDNDNDKFEGNCAEQDGSGWWMNKCHAGHLNGVYYQGGTYSKASTPNGYDNGIIWATWKTRWYSMKKTTMKIIPFNRLTIGEGQQ
modifications: FITC-labeled in the flow cytometry assays
notes: domain: Fibrinogen γ-chain C-terminal domain that lacks residues 400-411

How the values were obtained:
[1] = molecular target: B2; test: ELISA-type: GST-tagged peptide on immobilized sPLA2-IIA, anti-GST-HRP
[2] = molecular target: T1, integrin α5β1 on K562 cells and U937 cells (UniProt P08648 42-1049; P05556 21-798, limits assumed); test: flow cytometry, FITC-sPLA2-IIA (10 µg/ml) on K562 cells
T1 construct: whole, on cells
Procedure: Bound FITC was measured using flow cytometry. Data are shown as means±SEM of MFI of three independent experiments. c. […] Data are shown as means±SEM of % adhesion of three independent experiments. d-f. […] Data are shown as means±SEM of MFI of three independent experiments. […] Data are shown as means±SEM of MFI of three independent experiments, j-l. […] Data are shown as means±SEM of MFI of three independent experiments.

control GST = molecular target: T2, control GST (UniProt P08515 1-218 = GST); test: ELISA-type: GST-tagged protein on immobilized sPLA2-IIA, anti-GST-HRP
T2 construct: Control protein
Procedure: Remaining protein binding sites were blocked by incubating with PBS/0.1% BSA for 30 min at room temperature. After washing with PBS, S2 peptides were added to the wells and incubated in PBS for 2 h at room temperature.

[3] = molecular target: T3, integrin αvβ3 on the cell surface of U937 cells and of K562 cells that express human integrin αvβ3 (human, UniProt P06756 31-1048; P05106 27-788); test: flow cytometry, FITC-labeled ADAM15 on U937 and αvβ3-K562 cells, with sPLA2-IIA (20 µg/ml)
T3 construct: whole, on cells; Two cell types carry the same human integrin; also called αvβ3 on U937; αvβ3-K562
Source text: Data are shown as means (MFI)±SEM of three independent experiments.
(§1) The cells were washed with PBS/0.02% BSA and analyzed by FACSCalibur (Becton Dickinson, Mountain View, Calif.).

[4] = molecular target: T1, integrin α5β1 on K562 cells and U937 …; test: flow cytometry, FITC-FN8-11 on U937 and K562 cells, with sPLA2-IIA
Procedure: Bound FITC was measured using flow cytometry.
as §1

[5] = molecular target: T3, integrin αvβ3 on the cell surface of …; test: flow cytometry, FITC-γC399tr on U937 and αvβ3-K562 cells with sPLA2-IIA (20 µg/ml) and Cmpd21
Source text: as §1

[6] = molecular target: T4, recombinant soluble integrin αvβ3 (UniProt P06756 31-992; P05106 27-718, limits assumed); test: ELISA-type: soluble αvβ3 (5 µg/ml) on immobilized γC399tr, 1 mM Ca2+, with sPLA2-IIA; bound αvβ3 detected with anti-β3 mAb AV-10
T4 construct: also called soluble αvβ3
Procedure: Remaining protein binding sites were blocked by incubating with PBS/0.1% BSA for 30 min at room temperature.

T1 sequence (P08648 42-1049 limits assumed, chain 1 of 2): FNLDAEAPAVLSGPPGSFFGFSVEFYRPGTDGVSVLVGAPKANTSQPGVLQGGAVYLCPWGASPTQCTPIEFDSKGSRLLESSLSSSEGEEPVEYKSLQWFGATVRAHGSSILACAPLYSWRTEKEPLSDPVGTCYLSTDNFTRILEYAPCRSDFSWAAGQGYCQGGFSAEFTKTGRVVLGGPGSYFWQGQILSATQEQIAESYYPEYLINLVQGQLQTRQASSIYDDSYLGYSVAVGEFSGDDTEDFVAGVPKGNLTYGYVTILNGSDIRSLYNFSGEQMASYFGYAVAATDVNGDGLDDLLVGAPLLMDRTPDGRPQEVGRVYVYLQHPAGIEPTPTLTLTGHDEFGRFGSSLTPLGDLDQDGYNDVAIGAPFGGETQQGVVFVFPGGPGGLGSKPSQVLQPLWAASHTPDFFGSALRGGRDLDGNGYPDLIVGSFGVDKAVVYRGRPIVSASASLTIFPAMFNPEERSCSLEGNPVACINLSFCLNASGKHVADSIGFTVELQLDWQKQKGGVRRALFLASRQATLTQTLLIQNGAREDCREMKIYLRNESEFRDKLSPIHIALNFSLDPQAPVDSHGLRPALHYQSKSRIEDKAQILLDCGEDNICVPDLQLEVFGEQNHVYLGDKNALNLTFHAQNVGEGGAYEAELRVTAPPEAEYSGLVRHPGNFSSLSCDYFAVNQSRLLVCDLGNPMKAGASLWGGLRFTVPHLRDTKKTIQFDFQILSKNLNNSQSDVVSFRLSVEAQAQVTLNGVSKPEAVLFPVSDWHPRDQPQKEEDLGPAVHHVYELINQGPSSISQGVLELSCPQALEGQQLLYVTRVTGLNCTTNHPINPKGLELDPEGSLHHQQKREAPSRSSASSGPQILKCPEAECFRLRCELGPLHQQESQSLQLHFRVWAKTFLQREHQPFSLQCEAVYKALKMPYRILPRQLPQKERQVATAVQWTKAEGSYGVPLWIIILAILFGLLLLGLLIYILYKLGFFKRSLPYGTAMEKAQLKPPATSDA
T1 sequence (P05556 21-798 limits assumed, chain 2 of 2): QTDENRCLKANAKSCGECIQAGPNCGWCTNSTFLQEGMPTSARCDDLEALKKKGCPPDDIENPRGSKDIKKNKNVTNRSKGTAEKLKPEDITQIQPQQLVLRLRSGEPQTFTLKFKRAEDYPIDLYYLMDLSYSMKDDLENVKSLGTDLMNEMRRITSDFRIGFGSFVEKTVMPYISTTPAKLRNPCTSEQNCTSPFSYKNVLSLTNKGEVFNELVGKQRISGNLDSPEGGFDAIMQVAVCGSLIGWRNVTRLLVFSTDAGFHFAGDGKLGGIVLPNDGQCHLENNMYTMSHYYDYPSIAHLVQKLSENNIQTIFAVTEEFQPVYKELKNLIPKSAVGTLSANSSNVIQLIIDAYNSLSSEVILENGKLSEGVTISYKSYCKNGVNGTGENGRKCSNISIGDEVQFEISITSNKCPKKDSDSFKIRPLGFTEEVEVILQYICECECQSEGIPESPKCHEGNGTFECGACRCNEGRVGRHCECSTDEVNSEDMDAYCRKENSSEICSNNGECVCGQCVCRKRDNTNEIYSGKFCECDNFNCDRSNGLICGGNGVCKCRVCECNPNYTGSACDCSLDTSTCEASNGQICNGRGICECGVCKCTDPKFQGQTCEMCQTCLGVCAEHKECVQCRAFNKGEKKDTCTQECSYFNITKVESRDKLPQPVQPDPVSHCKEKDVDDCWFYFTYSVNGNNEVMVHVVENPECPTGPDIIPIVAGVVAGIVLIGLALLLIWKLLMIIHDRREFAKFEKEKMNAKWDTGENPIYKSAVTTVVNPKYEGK
T3 sequence (P06756 31-1048, chain 1 of 2): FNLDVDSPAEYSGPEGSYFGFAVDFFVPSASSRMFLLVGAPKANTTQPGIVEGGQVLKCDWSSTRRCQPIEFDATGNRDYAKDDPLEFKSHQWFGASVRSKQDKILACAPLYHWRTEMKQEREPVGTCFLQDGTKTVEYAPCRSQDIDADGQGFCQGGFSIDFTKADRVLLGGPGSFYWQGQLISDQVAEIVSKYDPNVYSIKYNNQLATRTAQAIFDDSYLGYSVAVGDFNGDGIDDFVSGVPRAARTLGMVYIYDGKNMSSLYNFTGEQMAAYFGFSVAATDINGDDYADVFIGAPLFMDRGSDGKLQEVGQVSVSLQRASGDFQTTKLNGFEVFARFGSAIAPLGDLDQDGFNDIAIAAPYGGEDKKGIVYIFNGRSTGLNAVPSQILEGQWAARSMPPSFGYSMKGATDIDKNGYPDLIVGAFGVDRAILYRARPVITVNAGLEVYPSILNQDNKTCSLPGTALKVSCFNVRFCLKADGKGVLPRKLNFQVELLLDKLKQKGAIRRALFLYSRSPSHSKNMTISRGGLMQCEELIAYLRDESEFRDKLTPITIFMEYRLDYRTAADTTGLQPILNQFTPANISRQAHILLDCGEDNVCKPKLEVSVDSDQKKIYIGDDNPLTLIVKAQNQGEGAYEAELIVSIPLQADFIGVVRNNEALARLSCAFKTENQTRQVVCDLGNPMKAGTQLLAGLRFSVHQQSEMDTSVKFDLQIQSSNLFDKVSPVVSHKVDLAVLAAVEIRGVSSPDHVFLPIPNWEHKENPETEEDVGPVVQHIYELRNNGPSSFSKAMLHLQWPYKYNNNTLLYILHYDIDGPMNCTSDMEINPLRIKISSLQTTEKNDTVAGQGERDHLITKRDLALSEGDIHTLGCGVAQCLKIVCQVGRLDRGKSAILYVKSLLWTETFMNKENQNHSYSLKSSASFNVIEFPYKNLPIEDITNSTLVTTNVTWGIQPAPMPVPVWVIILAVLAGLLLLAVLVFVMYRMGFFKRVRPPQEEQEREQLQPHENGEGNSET
T3 sequence (P05106 27-788, chain 2 of 2): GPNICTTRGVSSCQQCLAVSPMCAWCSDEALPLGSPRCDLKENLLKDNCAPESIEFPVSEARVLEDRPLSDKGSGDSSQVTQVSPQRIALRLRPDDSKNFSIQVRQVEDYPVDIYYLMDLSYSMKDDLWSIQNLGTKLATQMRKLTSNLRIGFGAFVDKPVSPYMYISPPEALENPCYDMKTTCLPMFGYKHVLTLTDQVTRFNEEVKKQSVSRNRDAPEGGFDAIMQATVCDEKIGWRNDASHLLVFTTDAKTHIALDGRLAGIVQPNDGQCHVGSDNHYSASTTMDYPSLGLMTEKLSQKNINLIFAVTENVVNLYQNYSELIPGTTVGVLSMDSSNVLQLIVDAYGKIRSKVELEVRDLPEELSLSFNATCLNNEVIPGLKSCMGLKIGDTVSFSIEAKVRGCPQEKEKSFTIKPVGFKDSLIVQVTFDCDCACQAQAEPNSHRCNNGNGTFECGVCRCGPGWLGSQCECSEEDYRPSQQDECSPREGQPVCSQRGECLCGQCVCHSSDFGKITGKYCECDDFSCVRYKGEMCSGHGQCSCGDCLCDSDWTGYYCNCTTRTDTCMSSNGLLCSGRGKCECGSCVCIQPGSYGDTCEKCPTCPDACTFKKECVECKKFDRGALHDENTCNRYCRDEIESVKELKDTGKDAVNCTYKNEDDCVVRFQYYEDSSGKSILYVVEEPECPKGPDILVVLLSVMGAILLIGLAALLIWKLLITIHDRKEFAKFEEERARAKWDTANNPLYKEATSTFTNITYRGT
T2 sequence (P08515 whole entry): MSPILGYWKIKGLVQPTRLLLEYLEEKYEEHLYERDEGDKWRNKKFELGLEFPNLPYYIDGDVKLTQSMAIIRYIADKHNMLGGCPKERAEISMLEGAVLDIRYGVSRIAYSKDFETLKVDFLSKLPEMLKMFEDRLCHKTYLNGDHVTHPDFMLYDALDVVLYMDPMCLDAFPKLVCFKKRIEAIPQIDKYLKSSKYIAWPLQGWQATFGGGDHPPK

Binder: B1
binding result [1]: no binding

Binder: B2
binding result [2]: binds | binding result (control GST): no binding

Binder: B3
binding result [3]: binds

Binder: B4
binding result [4]: binds

Binder: B5
binding result [5]: binds | binding result [6]: binds
